We go through two substances from patent publication US20260167710A1.

The term Kd denotes a measure of binding affinity in units of concentration.

Assay [1] deals with cFcgRIIIa (cynomolgus monkey). The experiment in a line: SPR (ProteOn XPR36), anti-poly-histidine IgG surface, antibody as analyte, equilibrium fit, 25 C.
Assay [2] concerns the target cFcgRIIa (cynomolgus monkey). The assay is described as above.
Assay [3] has as its target cFcgRIIb (cynomolgus monkey). The description is as above.
For another assay, the target named is hFcgRI (human) (UniProt P12314). Described as above.
The target of another assay is hFcgRIIIa (F158) (human) (UniProt P08637). The assay is described as above.
The target of a further assay is hFcgRIIIa (V158) (human) (UniProt P08637). Described as above.
Another assay addresses hFcgRIIa (H131) (human) (UniProt P12318). The assay is described as above.
Another assay concerns the target hFcgRIIa (R131) (human) (UniProt P12318). Described as above.
The target in assay [4] is human complement component C1q (human) (UniProt P02745). The experiment in a line: SPR (ProteOn XPR36), antibody immobilised by amine coupling, C1q as analyte, equilibrium fit, 25 C.
In assay [5] the target is cynomolgus recombinant neonatal receptor (FcRn) (cynomolgus monkey) (UniProt Q8SPV9). Briefly: SPR (ProteOn XPR36), antibody captured by protein L, FcRn as analyte, equilibrium fit, pH 6.0, 25 C.
Assay [6] deals with human recombinant neonatal receptor (FcRn) (human) (UniProt P55899). Described as above.
For assay [7], the target named is cynomolgus recombinant neonatal receptor (FcRn) (cynomolgus monkey) (UniProt Q8SPV9). Briefly: SPR (ProteOn XPR36), antibody captured by protein L, FcRn as analyte, equilibrium fit, pH 7.4, 25 C.
The target of assay [8] is human recombinant neonatal receptor (FcRn) (human) (UniProt P55899). The assay is described as above.

human recombinant neonatal receptor (FcRn) (human), sequence (P55899 24-297 limits assumed, chain 1 of 2): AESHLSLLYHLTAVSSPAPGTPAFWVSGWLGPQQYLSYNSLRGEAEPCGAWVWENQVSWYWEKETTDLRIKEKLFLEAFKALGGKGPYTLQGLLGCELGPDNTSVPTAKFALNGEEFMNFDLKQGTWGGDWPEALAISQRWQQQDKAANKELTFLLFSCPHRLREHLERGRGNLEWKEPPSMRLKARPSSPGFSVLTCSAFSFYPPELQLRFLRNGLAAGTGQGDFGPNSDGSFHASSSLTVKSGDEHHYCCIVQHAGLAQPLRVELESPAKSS
human recombinant neonatal receptor (FcRn) (human), sequence (P61769 21-119 limits assumed, chain 2 of 2, further chain): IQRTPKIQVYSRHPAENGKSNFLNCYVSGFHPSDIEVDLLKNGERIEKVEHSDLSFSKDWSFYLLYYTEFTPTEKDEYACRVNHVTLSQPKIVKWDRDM
hFcgRIIIa (V158) (human), sequence (P08637 17-208 F176V): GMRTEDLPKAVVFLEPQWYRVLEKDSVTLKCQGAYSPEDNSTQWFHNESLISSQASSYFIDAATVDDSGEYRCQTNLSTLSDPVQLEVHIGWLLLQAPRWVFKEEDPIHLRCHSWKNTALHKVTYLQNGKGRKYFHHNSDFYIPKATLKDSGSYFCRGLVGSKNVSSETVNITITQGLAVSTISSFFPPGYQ
hFcgRIIa (R131) (human), sequence (P12318 34-217 H167R): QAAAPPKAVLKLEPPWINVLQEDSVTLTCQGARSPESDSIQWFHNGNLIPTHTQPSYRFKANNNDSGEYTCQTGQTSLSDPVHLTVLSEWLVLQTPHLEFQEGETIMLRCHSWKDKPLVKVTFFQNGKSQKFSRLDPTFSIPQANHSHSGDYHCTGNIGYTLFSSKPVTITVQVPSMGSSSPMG
hFcgRIIIa (F158) (human), sequence (P08637 17-208): as the sequence (P08637 17-208 F176V) above, with V160F counted along it
hFcgRIIa (H131) (human), sequence (P12318 34-217): as the sequence (P12318 34-217 H167R) above, with R134H counted along it
human complement component C1q (human), sequence (P02745 23-245 limits assumed, chain 1 of 3): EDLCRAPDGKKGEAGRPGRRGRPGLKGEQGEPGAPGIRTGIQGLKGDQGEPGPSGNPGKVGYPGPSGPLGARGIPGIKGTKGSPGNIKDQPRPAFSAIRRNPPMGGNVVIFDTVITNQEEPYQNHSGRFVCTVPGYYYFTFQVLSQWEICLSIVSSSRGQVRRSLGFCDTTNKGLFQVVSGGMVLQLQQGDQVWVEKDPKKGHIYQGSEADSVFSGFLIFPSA
human complement component C1q (human), sequence (P02746 28-253 limits assumed, chain 2 of 3, further chain): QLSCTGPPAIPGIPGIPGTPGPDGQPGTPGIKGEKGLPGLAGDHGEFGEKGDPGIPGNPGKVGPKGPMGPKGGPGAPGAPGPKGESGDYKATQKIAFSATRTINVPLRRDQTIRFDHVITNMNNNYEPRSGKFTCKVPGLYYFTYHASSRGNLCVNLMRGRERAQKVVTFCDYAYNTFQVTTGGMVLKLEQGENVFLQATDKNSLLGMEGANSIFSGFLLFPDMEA
human complement component C1q (human), sequence (P02747 29-245 limits assumed, chain 3 of 3, further chain): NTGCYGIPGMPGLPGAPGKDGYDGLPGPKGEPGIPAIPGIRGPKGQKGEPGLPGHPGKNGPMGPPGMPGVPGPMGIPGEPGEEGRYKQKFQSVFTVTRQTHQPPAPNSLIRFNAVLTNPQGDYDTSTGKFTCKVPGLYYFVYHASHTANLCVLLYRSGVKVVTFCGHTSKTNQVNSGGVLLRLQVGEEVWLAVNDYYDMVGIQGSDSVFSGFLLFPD
hFcgRI (human), sequence (P12314 16-292): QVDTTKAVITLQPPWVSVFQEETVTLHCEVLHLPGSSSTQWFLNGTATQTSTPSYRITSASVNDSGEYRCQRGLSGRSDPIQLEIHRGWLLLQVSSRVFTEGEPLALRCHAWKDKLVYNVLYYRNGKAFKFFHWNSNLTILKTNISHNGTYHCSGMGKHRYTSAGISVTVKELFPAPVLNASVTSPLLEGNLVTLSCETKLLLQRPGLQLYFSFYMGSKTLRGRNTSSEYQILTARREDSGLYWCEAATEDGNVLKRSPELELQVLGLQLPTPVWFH
cFcgRIIIa (cynomolgus monkey), sequence (Q8SPW2 17-208): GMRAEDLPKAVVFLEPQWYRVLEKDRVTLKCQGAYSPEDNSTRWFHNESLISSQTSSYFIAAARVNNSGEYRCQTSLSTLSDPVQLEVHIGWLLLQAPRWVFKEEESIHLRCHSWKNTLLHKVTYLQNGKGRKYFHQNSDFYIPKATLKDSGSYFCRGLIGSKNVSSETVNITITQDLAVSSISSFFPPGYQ

For the substance “Anti-RSV hIgG1 wildtype control (antibody)”, the Kd in assay [1] was determined as 141 nM; in [2], 2210 nM; in assay [3], 1450 nM; with hFcgRI (human), 28.3 nM; with hFcgRIIIa (F158) (human), 735 nM; with hFcgRIIIa (V158) (human), 232 nM. Also, the Kd with hFcgRIIa (H131) (human) is 884 nM; with hFcgRIIa (R131) (human), 528 nM; in assay [4], 680 nM; in assay [5], 146 nM; in [6] it was 129 nM.

As for Human IgG1 YTE control (antibody), the Kd in assay [5] came out at 39.3 nM; in [6], 30.4 nM; in assay [7], 2760 nM; in assay [8], 4330 nM.
